The values below come from the supplement of paper PMC12042874.

± gives the uncertainty stated by the source.

A short description of this series: amyloid nucleation score (Sup35N fusion, yeast selection) (log enrichment); library NNK2; higher = more nucleation; inactive = no reads after selection. In outline:
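Libraries of peptides of 20 random codons fused to Sup35N were expressed in psi-negative yeast and induced 24 hours with 100 μM copper sulfate. Selection was 7 days at 30°C on medium lacking adenine and uracil, and plasmid inserts were Illumina-sequenced before and after selection. Nucleation score is the DiMSum log enrichment of output over input reads, centred on the mode score of non-aggregating sequences, and sequences with under 100 input reads were left out.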
Regarding SYHVVCFVYVLVTFLLWCSH, the amyloid nucleation score is 2.22 ± 0.14. Under SYILEFFHWIRSRLEYYGY stands -1.5 ± 0.76; under SYLLSRYLRPKGYADNIVYA, “inactive”. For SYNTHQLSRSPF the value was -0.131 ± 0.23; for SYRNLDKTIRSDKLQVNLGI, -1.57 ± 1.1. In turn, SYSDPETFISWVLVDWCLMS came in with an amyloid nucleation score of -0.753 ± 0.55. For SYSYFLELVSYKFSVVFLSI the value was 0.715 ± 0.58; for SYVCRYITVPGFDTN, 4.76 ± 0.08; for SYVEHTMILDMRPTCHTLPH, 5.08 ± 0.11. For SYYMISY the value was 2.05 ± 0.12; for TAAGLFISNNHMNYFDAIAY, -1.09 ± 0.78; for TASFK, -0.014 ± 0.76.

Consider TASPSILTSKVTRYNLTVGC, for which the amyloid nucleation score is -0.072 ± 0.5. For TCAGIV the value was 0.408 ± 0.41; for TCFHR, 0.285 ± 0.55; for TCLSRVPPS, -0.797 ± 0.61.

TCRQSEATLLVLEYVRESCS showed an amyloid nucleation score of 0.809 ± 0.3. Under TCSRDVFGWTVLGTGLPPLR stands 0.878 ± 0.32; under TCVCDIYSSTVVSFLHSNRV, 5.44 ± 0.1.

Take TDITKVSGTFNHSMEPIWYT: the amyloid nucleation score result is “inactive”. The substance TDLIINMSQNR showed an amyloid nucleation score of 2.42 ± 0.1.

The substance TDQDT returned an amyloid nucleation score of 0.516 ± 0.32. For TDYHMFYRLDCLPLTTTCPV the value was 4.88 ± 0.087; for TEDDCGK, 0.975 ± 0.17. Under TEGRVDPLCDERAILMVFDV stands 0.768 ± 0.5; under TETTVFILLFWLLVILGRVH, “inactive”; under TFDRCPNNSGNDMTNGPESW, 1.21 ± 0.096.

Take TFDVTRI: the amyloid nucleation score is -0.311 ± 0.33. For TFFNNWMALKYRNYQFIMSG the value was “inactive”. For TFFYMRFPGFLFSNSSNAW the value was 1.47 ± 0.24. For TFGESSIVNNPYFLHESGHS the value was 0.813 ± 0.48; for TFGTSFKYFMSWLIDRCCYL, -0.836 ± 1.1. Regarding TFIAMSQALMTVYIGALLQW, the amyloid nucleation score was 3.57 ± 0.061. Under TFKMSGINPTD stands -1.19 ± 0.3. For TFMAIRSLNSSASGWATGF the value was 3.01 ± 0.049. The substance TFTVKCTDGGSCF displayed an amyloid nucleation score of 1.01 ± 0.24. For TFYRACALTLMRDQTDSWYC the value was 4.35 ± 0.091. The substance TFYYTAECWAWRNMQESSHT registered an amyloid nucleation score of 0.054 ± 0.32. In turn, TGCVKGYSSRWWESFYGGTR returned an amyloid nucleation score of -0.762 ± 0.79.

For the substance TGELSAQHKASTYYCYCWLF, the amyloid nucleation score was 4.43 ± 0.076.

In turn, TGFQLVNWSNIGLWNNLYGR came in with an amyloid nucleation score of 5.49 ± 0.065. For TGHKFPLRGSMRVVLDFFSR the value was 3.09 ± 0.089; for TGKFL, “inactive”; for TGLTH, -0.737 ± 0.54. TGMQMFMVVWLGQLDRSDTI came in with an amyloid nucleation score of 1.07 ± 0.28. Under TGNTFIPSLFICRIEGSTSA stands 0.506 ± 0.44; under TGPGSFFRRSGDTHLYSRDG, “inactive”; under TGPIWLCYACAWTNTYTPAE, 9.357 ± 0.055. In turn, TGQSKDNQDSNMGVICLFYS returned an amyloid nucleation score of 4.389 ± 0.04. The substance TGRGAHFHRI displayed an amyloid nucleation score of -0.24 ± 0.42. Under TGRHKVTDLRIWILWSYTGA stands -0.398 ± 0.63; under TGRLSIVAKNYWGHSVRAFS, 0.001 ± 0.76. Under THEIFMHSYY stands -0.913 ± 1.1; under THFPLHV, -0.388 ± 0.37; under THNLAEGQGKDCVQSLDRMG, 0.22 ± 0.38. For THSRRLRLNAKMCLHFLWYR the value was -0.115 ± 0.2. Take TIDWTMSHCMI: the amyloid nucleation score was -0.055 ± 0.56. For TIFFMGM the value was 3.65 ± 0.07.
